According to USRE47150 (Bayer, dated 2018):
Numbering of substitutions follows the chain as printed. Names may count otherwise.

T1: human tissue factor pathway inhibitor (TFPI) (human, UniProt P10646 29-304, limits assumed)
T1 construct: bought; also called hTFPI; human TFPI
T1 sequence (looked up): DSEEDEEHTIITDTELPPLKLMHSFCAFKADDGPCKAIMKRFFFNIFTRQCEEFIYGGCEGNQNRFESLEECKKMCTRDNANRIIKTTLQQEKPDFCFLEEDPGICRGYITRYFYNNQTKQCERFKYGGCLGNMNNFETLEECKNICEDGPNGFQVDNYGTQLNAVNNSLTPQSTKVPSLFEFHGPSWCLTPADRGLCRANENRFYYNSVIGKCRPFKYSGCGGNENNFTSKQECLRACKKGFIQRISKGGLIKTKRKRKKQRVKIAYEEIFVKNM

T2: mouse tissue factor pathway inhibitor (TFPI) (mouse, UniProt O54819 29-289, limits assumed)
T2 construct: bought; also called mTFPI; murine TFPI
T2 sequence (looked up): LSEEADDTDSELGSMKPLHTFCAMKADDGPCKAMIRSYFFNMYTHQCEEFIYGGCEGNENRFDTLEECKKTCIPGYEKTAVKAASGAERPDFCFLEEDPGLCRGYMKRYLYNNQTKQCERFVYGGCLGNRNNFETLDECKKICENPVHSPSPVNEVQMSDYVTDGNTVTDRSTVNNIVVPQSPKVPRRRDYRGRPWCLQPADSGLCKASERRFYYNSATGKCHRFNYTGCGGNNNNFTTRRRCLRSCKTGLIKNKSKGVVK

B1: 2A8 HC G33A+S35D+S55R+K99L/LC Y48F+N51V+D91W (Fab, V domains shown)
VH: QVQLVESGGGLVQPGGSLRLSCAASGFTFRSYAMDWVRQAPGKGLEWVSSIRGSRSSTYYADSVKGRFTISRDNSKNTLYLQMNSLRAEDTAVYYCARLYRYWFDYWGQGTLVTVSS
VL: DIELTQPPSVSVAPGQTARISCSGDNLRNYYAHWYQQKPGQAPVVVIFYDVNRPSGIPERFSGSNSGNTATLTISGTQAEDEADYYCQSWWDGVPVFGGGTKLTVLG
B2: 2A8 HC S31V+S35D+S55R/LC Y48F+N51V+D91L+V96W (Fab, V domains shown)
VH: B1 VH with S31V, A33G, L99K
VL: B1 VL with W91L, V96W
B3: 2A8 HC R30S+S31V+I51D+S55R+K99V/LC Y48F+D91L+V96W (Fab, V domains shown)
VH: B1 VH with R30S, S31V, A33G, D35S, I51D, L99V
VL: B1 VL with V51N, W91L, V96W
B4: 2A8 HC M34K+S35D+S55R+K99L/LC Y48F+N51V+D91W (Fab, V domains shown)
VH: B1 VH with A33G, M34K
VL: B1 VL
B5: 2A8 HC G33P+S35D+S54F+K99L/LC Y48F+N52G (Fab, V domains shown)
VH: B1 VH with A33P, S54F, R55S
VL: B1 VL with V51N, N52G, W91D
B6: 2A8 HC S31V+I51D+S54F+K99V/LC Y48F+N51V (Fab, V domains shown)
VH: B1 VH with S31V, A33G, D35S, I51D, S54F, R55S, L99V
VL: B1 VL with W91D
B7: 2A8 HC Q1E+S31V+S50A+I51D+S55R+S56G+K99V/LC Y48F+D91L+V96W (Fab, V domains shown)
VH: B1 VH with Q1E, S31V, A33G, D35S, S50A, I51D, S56G, L99V
VL: B1 VL with V51N, W91L, V96W
B8: 2A8 HC S31V+I51D+S55R/LC Y48F+N51V+D91L (Fab, V domains shown)
VH: B1 VH with S31V, A33G, D35S, I51D, L99K
VL: B1 VL with W91L
B9: 2A8 HC Q1E+S35D+S55R+K99L/LC Y48F+N51V+D91W (Fab, V domains shown)
VH: B1 VH with Q1E, A33G
VL: B1 VL
B10: 2A8 HC M34I+S35D+S55R+K99L/LC Y48F+N51V+D91W (Fab, V domains shown)
VH: B1 VH with A33G, M34I
VL: B1 VL
B11: 2A8 HC S31V+G33A+I51D+S55R+K99V/LC Y48F+D91L+V96W (Fab, V domains shown)
VH: B1 VH with S31V, D35S, I51D, L99V
VL: B1 VL with V51N, W91L, V96W
B12: 2A8 HC S31V+I51D+S55R+S56G+K99V/LC Y48F+D91L+V96W (Fab, V domains shown)
VH: B1 VH with S31V, A33G, D35S, I51D, S56G, L99V
VL: B1 VL with V51N, W91L, V96W
B13: 2A8 HC Q1E+R30S+S35D+S55G+S56G+K99L/LC Y48F+D91L+V96W (Fab, V domains shown)
VH: B1 VH with Q1E, R30S, A33G, R55G, S56G
VL: B1 VL with V51N, W91L, V96W
B14: 2A8 HC Q1E+R30S+S35D+S55R+S56G+K99L/LC Y48F+N51V+D91W (Fab, V domains shown)
VH: B1 VH with Q1E, R30S, A33G, S56G
VL: B1 VL
B15: 2A8 HC S31V+K99V/LC N51V+D91W (Fab, V domains shown)
VH: B1 VH with S31V, A33G, D35S, R55S, L99V
VL: B1 VL with F48Y
B16: 2A8 HC S31V+S35L+I51E+S54F+K99V/LC N51V+D91K (Fab, V domains shown)
VH: B1 VH with S31V, A33G, D35L, I51E, S54F, R55S, L99V
VL: B1 VL with F48Y, W91K
B17: 2A8 HC S31V+G33P+S35D/LC Y48F+N51V+D91L (Fab, V domains shown)
VH: B1 VH with S31V, A33P, R55S, L99K
VL: B1 VL with W91L
B18: 2A8 HC S31V+I51D+R52S+S55R+K99V/LC Y48F+D91L+V96W (Fab, V domains shown)
VH: B1 VH with S31V, A33G, D35S, I51D, R52S, L99V
VL: B1 VL with V51N, W91L, V96W
B19: 2A8 HC R30S+S35D+S55R+K99L/LC Y48F+N51V+D91W (Fab, V domains shown)
VH: B1 VH with R30S, A33G
VL: B1 VL
B20: 2A8 HC S31V+S35D/LC Y48F+N51V (Fab, V domains shown)
VH: B1 VH with S31V, A33G, R55S, L99K
VL: B1 VL with W91D
B21: 2A8 HC S31V+I51E+S55R+K99V/LC Y48F+D91L+V96W (Fab, V domains shown)
VH: B1 VH with S31V, A33G, D35S, I51E, L99V
VL: B1 VL with V51N, W91L, V96W
B22: 2A8 HC S31V+I51D+S55R+K99L/LC Y48F+N52G+D91L+V96W (Fab, V domains shown)
VH: B1 VH with S31V, A33G, D35S, I51D
VL: B1 VL with V51N, N52G, W91L, V96W
B23: 2A8 HC S31V+S35L+I51D+S54F+K99V/LC N51V+D91K (Fab, V domains shown)
VH: B1 VH with S31V, A33G, D35L, I51D, S54F, R55S, L99V
VL: B1 VL with F48Y, W91K
B24: 2A8 HC I51D+S54F+K99L/LC D91W (Fab, V domains shown)
VH: B1 VH with A33G, D35S, I51D, S54F, R55S
VL: B1 VL with F48Y, V51N
B25: 2A8 HC G33P+I51D+S54F/LC Y48F+N51V+V96W (Fab, V domains shown)
VH: B1 VH with A33P, D35S, I51D, S54F, R55S, L99K
VL: B1 VL with W91D, V96W
B26: 2A8 HC S31V+S35D+I51D+K99V/LC Y48F+D91K (Fab, V domains shown)
VH: B1 VH with S31V, A33G, I51D, R55S, L99V
VL: B1 VL with V51N, W91K
B27: 2A8 HC S31V+G33P+S35D/LC Y48F+D91L+V96W (Fab, V domains shown)
VH: B1 VH with S31V, A33P, R55S, L99K
VL: B1 VL with V51N, W91L, V96W
B28: 2A8 HC S31V+G33P+I51D+S54F+K99V/LC Y48F+N51V+D91W (Fab, V domains shown)
VH: B1 VH with S31V, A33P, D35S, I51D, S54F, R55S, L99V
VL: B1 VL
B29: 2A8 HC S31V+S35D+S54F/LC Y48F+D91L+V96W (Fab, V domains shown)
VH: B1 VH with S31V, A33G, S54F, R55S, L99K
VL: B1 VL with V51N, W91L, V96W
B30: 2A8 HC S31V+S50A+I51D+S55R+K99V/LC Y48F+D91L+V96W (Fab, V domains shown)
VH: B1 VH with S31V, A33G, D35S, S50A, I51D, L99V
VL: B1 VL with V51N, W91L, V96W

What follows are binders tested against T1, human tissue factor pathway inhibitor … (assay: competitive ELISA).
B1 showed a variant/HC_K99L of 16 ratio.
B2 gave a variant/HC_K99L of 8.7 ratio.
B3 showed a variant/HC_K99L of 13.5 ratio.
B4 was tested, and the variant/HC_K99L was 11.2 ratio.
For B5, the variant/HC_K99L was 6.2 ratio.
B6 gave a variant/HC_K99L of 8.1 ratio.
With B7 the variant/HC_K99L was 12.1 ratio.
B8 showed a variant/HC_K99L of 8.4 ratio.
B9 gave a variant/HC_K99L of 20.9 ratio.
B10 showed a variant/HC_K99L of 19.6 ratio.
B11 was tested, and the variant/HC_K99L was 9 ratio.
In the case of B12, the variant/HC_K99L is reported as 16.2 ratio.
With B13 the variant/HC_K99L was 13.6 ratio.
Work on B14 yielded a variant/HC_K99L of 11.9 ratio.
Work on B15 yielded a variant/HC_K99L of 6.7 ratio.
In the case of B16, the variant/HC_K99L is reported as 4.9 ratio.
Work on B17 yielded a variant/HC_K99L of 12.2 ratio.
B18 gave a variant/HC_K99L of 11.7 ratio.
Work on B19 yielded a variant/HC_K99L of 17.9 ratio.
B20 was tested, and the variant/HC_K99L was 7.5 ratio.
In the case of B21, the variant/HC_K99L is reported as 9.2 ratio.
Work on B22 yielded a variant/HC_K99L of 0.4 ratio.
B23 showed a variant/HC_K99L of 8.6 ratio.
With B24 the variant/HC_K99L was 6.2 ratio.
B25 gave a variant/HC_K99L of 0.6 ratio.
Binder B26 has a variant/HC_K99L of 0.6 ratio.
B27 gave a variant/HC_K99L of 22.5 ratio.
B28 gave a variant/HC_K99L of 6.6 ratio.
Binder B29 has a variant/HC_K99L of 5.4 ratio.
For B30, the variant/HC_K99L was 16.6 ratio.

What follows are binders tested against T2, mouse tissue factor pathway inhibitor … (assay: competitive ELISA).
In the case of B1, the variant/HC_K99L is reported as 14.7 ratio.
B2 gave a variant/HC_K99L of 8.2 ratio.
With B3 the variant/HC_K99L was 6.5 ratio.
B4 gave a variant/HC_K99L of 11.6 ratio.
B5 showed a variant/HC_K99L of 2.3 ratio.
In the case of B6, the variant/HC_K99L is reported as 2.2 ratio.
B7 was tested, and the variant/HC_K99L was 7.7 ratio.
Binder B8 has a variant/HC_K99L of 6.5 ratio.
With B9 the variant/HC_K99L was 20.3 ratio.
Work on B10 yielded a variant/HC_K99L of 18.1 ratio.
In the case of B11, the variant/HC_K99L is reported as 4.7 ratio.
Binder B12 has a variant/HC_K99L of 12.1 ratio.
B13 gave a variant/HC_K99L of 10.6 ratio.
In the case of B14, the variant/HC_K99L is reported as 9.3 ratio.
B15 gave a variant/HC_K99L of 5.6 ratio.
B16 gave a variant/HC_K99L of 3.9 ratio.
In the case of B17, the variant/HC_K99L is reported as 11.7 ratio.
For B18, the variant/HC_K99L was 7.9 ratio.
For B19, the variant/HC_K99L was 19.1 ratio.
Binder B20 has a variant/HC_K99L of 7.2 ratio.
B21 showed a variant/HC_K99L of 7 ratio.
B22 showed a variant/HC_K99L of 0.1 ratio.
For B23, the variant/HC_K99L was 8.2 ratio.
Binder B24 has a variant/HC_K99L of 5.3 ratio.
B25 gave a variant/HC_K99L of 0.4 ratio.
B26 showed a variant/HC_K99L of 0.1 ratio.
With B27 the variant/HC_K99L was 5.9 ratio.
In the case of B28, the variant/HC_K99L is reported as 5.9 ratio.
Binder B29 has a variant/HC_K99L of 4.2 ratio.
For B30, the variant/HC_K99L was 9.3 ratio.
